Assay in all cases: SPR, KD relative to WT C2;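 note: biacore SPR at 37 °C, anti-C2 mAbs captured on anti-human IgG chips with alanine or serine point mutants of C2 as analyte, KD from 1:1 fit compared with wild-type C2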
For one assay, the target named is T1, human C2 N403A (human, UniProt P06681 21-752).
T1 sequence: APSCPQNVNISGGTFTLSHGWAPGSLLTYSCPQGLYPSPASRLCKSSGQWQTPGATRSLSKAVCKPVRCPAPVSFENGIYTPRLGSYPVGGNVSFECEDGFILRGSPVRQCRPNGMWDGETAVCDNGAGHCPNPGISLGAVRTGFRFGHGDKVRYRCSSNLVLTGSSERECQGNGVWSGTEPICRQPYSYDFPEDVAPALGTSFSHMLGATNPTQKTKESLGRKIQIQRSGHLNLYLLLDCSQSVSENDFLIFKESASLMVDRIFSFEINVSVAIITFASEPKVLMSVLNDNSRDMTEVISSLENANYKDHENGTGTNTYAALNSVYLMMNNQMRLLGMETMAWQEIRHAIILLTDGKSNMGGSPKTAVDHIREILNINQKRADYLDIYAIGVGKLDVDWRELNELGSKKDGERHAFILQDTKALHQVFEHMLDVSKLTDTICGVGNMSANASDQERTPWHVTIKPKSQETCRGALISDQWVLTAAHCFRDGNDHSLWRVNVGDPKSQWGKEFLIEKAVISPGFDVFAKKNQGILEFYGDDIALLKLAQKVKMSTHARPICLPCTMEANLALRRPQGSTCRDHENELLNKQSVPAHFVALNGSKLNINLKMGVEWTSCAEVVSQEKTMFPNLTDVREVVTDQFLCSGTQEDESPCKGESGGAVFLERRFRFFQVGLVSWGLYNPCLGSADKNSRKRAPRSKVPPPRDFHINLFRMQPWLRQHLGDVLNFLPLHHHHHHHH

Assay [1] deals with T2, human complement C2 (wild type) (human, UniProt P06681 21-752).
T2 construct: Full-length human C2 (NP_000054) with C-terminal 8x His tag, secreted from Expi293F cells and purified from the supernatant; also called WT; huC2
T2 sequence: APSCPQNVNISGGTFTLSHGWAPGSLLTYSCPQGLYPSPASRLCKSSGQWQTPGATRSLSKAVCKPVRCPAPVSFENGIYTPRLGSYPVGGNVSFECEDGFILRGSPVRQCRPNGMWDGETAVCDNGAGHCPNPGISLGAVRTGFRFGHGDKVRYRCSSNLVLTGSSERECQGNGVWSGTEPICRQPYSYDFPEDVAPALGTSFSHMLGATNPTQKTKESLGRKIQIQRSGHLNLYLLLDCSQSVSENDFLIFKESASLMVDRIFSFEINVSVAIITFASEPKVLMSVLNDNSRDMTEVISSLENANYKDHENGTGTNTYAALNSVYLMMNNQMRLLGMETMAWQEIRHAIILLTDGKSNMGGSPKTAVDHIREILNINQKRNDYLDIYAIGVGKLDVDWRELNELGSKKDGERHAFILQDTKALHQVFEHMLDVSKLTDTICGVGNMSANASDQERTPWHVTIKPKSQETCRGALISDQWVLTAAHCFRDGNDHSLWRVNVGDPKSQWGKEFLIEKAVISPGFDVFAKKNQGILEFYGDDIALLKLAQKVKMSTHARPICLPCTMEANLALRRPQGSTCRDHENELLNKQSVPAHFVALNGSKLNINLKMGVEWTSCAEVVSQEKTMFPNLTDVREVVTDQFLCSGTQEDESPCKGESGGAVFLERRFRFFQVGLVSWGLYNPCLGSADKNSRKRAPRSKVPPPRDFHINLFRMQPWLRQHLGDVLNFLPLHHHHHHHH

The target of another assay is T3, human C2 Q447A (human, UniProt P06681 21-752).
T3 sequence: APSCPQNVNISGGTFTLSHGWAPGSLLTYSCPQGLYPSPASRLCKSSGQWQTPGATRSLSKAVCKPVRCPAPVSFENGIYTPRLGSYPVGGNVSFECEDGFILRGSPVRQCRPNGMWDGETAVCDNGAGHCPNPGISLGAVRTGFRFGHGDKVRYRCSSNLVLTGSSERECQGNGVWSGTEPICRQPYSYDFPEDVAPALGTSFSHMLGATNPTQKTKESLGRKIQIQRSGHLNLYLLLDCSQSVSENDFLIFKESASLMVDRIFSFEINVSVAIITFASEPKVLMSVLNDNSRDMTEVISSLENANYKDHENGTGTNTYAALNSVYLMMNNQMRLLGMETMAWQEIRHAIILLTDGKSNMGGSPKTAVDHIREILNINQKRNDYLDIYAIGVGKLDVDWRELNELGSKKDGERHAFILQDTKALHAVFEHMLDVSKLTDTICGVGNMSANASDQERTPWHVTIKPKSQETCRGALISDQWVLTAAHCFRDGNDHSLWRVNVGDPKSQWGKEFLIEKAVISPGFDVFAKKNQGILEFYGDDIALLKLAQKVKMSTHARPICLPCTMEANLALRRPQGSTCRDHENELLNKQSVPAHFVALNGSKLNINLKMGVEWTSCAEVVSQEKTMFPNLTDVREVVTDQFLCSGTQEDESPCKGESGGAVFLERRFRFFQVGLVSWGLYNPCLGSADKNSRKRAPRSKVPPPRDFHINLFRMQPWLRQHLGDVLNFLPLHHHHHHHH

B1: RF16-242 (antibody, human IgG4 S228P, lambda, V domains shown)
VH: EVQLLQSGAEVKKPGESLKISCKGSGYSFTSYWIGWVRQMPGKGLEWMGIIYPGDSDTRYSPSFQGQVTISADKSISTAYLQWSSLKASDTAMYYCARRGHYGDYFDYWGQGTLVTVSS
VL: SYELTQPPSVSVSPGQTARITCSGDALPKKYAYWYHQKSGQAPVLVIYEDRRRPSEIPERFSGSSSGTMATLTITGAQVEDEGVYFCYSRDRAGNQRVFGGGTQLTVLG
notes: pH-dependent anti-C2 antibody from a phage display library
As for B1, the results for the Fold diff (with human C2 N403A; in assay [1]; with human C2 Q447A) were 1 fold, 1 fold and 4 fold, respectively.

The values are drawn from patent US20220332804A1 (CSL INNOVATION, published 2022).
